Data published in article doi:10.1101/2020.12.15.422856 (bioRxiv, 2020).

Molecular target: the molecule itself
Experiment: SEC

B1: Mer2 (wild-type, full-length) (natural protein)
chain: MVARGRTDEISTDVSEANSEHSLMITETSSPFRSIFSHSGKVANAGALEESDKQILEWAGKLELESMELRENSDKLIKVLNENSKTLCKSLNKFNQLLEQDAATNGNVKTLIKDLASQIENQLDKVSTAMLSKGDEKKTKSDSSYRQVLVEEISRYNSKITRHVTNKQHETEKSMRCTQEMLFNVGSQLEDVHKVLLSLSKDMHSLQTRQTALEMAFREKADHAYDRPDVSLNGTTLLHDMDEAHDKQRKKSVPPPRMMVTRSMKRRRSSSPTLSTSQNHNSEDNDDASHRLKRAARTIIPWEELRPDTLESEL
binding result: binds
